# Several values for one entry are separate records, joined by “and”; a condition that tells them apart may be missing. Equal values may be shown once. Read-outs that look alike come from different tables or passages of the source.
# How the values were obtained:
# [1] = biological target: control (Fig. 48); assay: flow cytometry, RT, 3.5 µg/ml; control
# [2] = biological target: control (Fig. 48)
# [3] = biological target: HA peptide-stimulated PBMC (antigen-specific CD4+ T cells)
# [4] = biological target: control (Fig. 48); assay: flow cytometry, RT, 1.75 µg/ml; control
# [5] = biological target: HA peptide-stimulated PBMC (antigen-specific CD4+ T cells); assay: flow cytometry, 4 °C; HA306-318 stim
# [6] = biological target: HA peptide-stimulated PBMC (antigen-specific CD4+ T cells); remark: listed apart in the source
# [7] = biological target: HA peptide-stimulated PBMC (antigen-specific CD4+ T cells); assay: flow cytometry, RT 1 h, 10 µg/ml; HA306-318 stim
# [8] = biological target: HA peptide-stimulated PBMC (antigen-specific CD4+ T cells); assay: flow cytometry, staining at 4°C 1 h, 28 µg/ml; 10 min, no imidazole
# [9] = biological target: HA peptide-stimulated PBMC (antigen-specific CD4+ T cells); assay: flow cytometry, staining at 4°C 1 h, 28 µg/ml; 0 min, no imidazole
# [10] = biological target: HA peptide-stimulated PBMC (antigen-specific CD4+ T cells); assay: flow cytometry, RT, 3.5 µg/ml; HA306-318 stim
# [11] = biological target: HA peptide-stimulated PBMC (antigen-specific CD4+ T cells); assay: flow cytometry, 37 °C 1 h, 10 µg/ml; HA306-318 stim
# [12] = biological target: HA peptide-stimulated PBMC (antigen-specific CD4+ T cells); assay: flow cytometry, staining at 4°C 1 h, 28 µg/ml; 3 min, no imidazole
# [13] = biological target: HA peptide-stimulated PBMC (antigen-specific CD4+ T cells); assay: flow cytometry, staining at 4°C 1 h, 28 µg/ml; 5 min, no imidazole
# [14] = biological target: HA peptide-stimulated PBMC (antigen-specific CD4+ T cells); remark: listed apart in the source
# [15] = biological target: control (Fig. 48); assay: flow cytometry, RT; control; conventional BSP multimer, concentration not given
# [16] = biological target: HA peptide-stimulated PBMC (antigen-specific CD4+ T cells); assay: flow cytometry, RT, 1.75 µg/ml; HA306-318 stim
# [17] = biological target: control (Fig. 48); assay: flow cytometry, 4 °C; control
# [18] = biological target: HA peptide-stimulated PBMC (antigen-specific CD4+ T cells); assay: flow cytometry, staining at 4°C 1 h, 28 µg/ml; 1 min, no imidazole
# [19] = biological target: HA peptide-stimulated PBMC (antigen-specific CD4+ T cells); assay: flow cytometry, RT, 7 µg/ml; HA306-318 stim
# [20] = biological target: control (Fig. 48); assay: flow cytometry, RT, 7 µg/ml; control
substance,measurement,setting,value
DR4 2×His DTB-HA306-318 complexes (DTB-streptactin purified monomers) (from UniProt P01903 26-216) (peptide-MHC),% of cells in Q2 (multimer+ CD4+),[1],0.222%
same,% of cells in Q2 (multimer+ CD4+),[2],0.384% and 0.618%
same,% of cells in Q2 (multimer+ CD4+),[3],24.9% and 9.81%
same,% of cells in Q2 (multimer+ CD4+),[4],0.142%
same,% of cells in Q2 (multimer+ CD4+),[5],2.52% and 2.3%
same,% of cells in Q2 (multimer+ CD4+),[6],4.52%
same,% of cells in Q2 (multimer+ CD4+),[7],5.35% and 3.3%
same,% of cells in Q2 (multimer+ CD4+),[8],4.35%
same,% of cells in Q2 (multimer+ CD4+),[9],4.5%
same,% of cells in Q2 (multimer+ CD4+),[10],7.94%
same,% of cells in Q2 (multimer+ CD4+),[11],6.23%
same,% of cells in Q2 (multimer+ CD4+),[12],4.68%
same,% of cells in Q2 (multimer+ CD4+),[13],4.59%
same,% of cells in Q2 (multimer+ CD4+),[14],12.3%
same,% of cells in Q2 (multimer+ CD4+),[15],0.121%
same,% of cells in Q2 (multimer+ CD4+),[16],7.23%
same,% of cells in Q2 (multimer+ CD4+),[17],0.355% and 0.561%
same,% of cells in Q2 (multimer+ CD4+),[18],5.3%
same,% of cells in Q2 (multimer+ CD4+),[19],6.15%
same,% of cells in Q2 (multimer+ CD4+),[20],0.11%
